The values below are quoted from earlier work in PMC5744648.

Data set [1] concerns the target GPR1 (Chemerin2) (Homo sapiens) (UniProt P46091). Kind of data set: radioligand binding.
The target of data set [2] is CMKLR1 (Chemerin1) (Homo sapiens) (UniProt Q99788). In words: radioligand.
The target in data set [3] is CMKLR1 (Chemerin1) (Mus musculus) (UniProt P97468). Kind of data set: radioligand binding.
The target in data set [4] is GPR1 (Chemerin2) (Homo sapiens) (UniProt P46091). In words: radioligand.
Chain of GPR1 (Chemerin2) (Homo sapiens) (P46091 whole entry): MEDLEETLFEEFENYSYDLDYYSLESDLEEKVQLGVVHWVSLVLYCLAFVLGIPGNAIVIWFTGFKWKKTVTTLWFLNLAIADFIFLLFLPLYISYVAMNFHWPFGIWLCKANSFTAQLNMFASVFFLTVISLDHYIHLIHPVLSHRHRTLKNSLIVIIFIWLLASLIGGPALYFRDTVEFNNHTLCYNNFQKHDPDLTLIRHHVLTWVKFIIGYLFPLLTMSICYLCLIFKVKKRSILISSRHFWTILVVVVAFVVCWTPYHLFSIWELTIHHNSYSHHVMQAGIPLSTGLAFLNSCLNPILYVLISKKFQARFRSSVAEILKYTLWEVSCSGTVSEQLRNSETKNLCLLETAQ

Chain of CMKLR1 (Chemerin1) (Homo sapiens) (Q99788 whole entry): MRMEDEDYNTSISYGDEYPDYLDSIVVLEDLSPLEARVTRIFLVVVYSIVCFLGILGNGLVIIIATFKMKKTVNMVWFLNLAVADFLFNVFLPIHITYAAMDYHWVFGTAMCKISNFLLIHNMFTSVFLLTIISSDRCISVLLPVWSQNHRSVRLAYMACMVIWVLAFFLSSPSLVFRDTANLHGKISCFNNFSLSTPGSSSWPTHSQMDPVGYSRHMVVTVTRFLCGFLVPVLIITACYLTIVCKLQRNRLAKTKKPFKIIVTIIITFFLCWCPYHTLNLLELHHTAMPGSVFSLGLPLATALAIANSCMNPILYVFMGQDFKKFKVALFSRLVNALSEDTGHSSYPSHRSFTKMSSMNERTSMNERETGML
Chain of Chemerin 21-157 (Q99969 21-157): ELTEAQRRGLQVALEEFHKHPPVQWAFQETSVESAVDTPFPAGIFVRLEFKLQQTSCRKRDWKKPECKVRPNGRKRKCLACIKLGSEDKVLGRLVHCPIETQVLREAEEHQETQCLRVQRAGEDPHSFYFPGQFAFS
Chain of Chemerin 21-148 (Q99969 21-148): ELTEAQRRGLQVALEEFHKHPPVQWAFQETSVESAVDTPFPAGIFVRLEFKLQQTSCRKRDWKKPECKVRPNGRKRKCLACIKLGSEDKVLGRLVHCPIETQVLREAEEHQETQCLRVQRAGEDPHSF
Chain of Chemerin C9 peptide 149-157 (Q99969 whole entry, looked up, tested part not stated): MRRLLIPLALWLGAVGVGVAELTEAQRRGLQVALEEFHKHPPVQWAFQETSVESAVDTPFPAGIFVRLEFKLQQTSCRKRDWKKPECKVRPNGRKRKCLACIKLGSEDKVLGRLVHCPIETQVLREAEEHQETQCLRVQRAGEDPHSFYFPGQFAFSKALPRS
Chain of CMKLR1 (Chemerin1) (Mus musculus) (P97468 whole entry): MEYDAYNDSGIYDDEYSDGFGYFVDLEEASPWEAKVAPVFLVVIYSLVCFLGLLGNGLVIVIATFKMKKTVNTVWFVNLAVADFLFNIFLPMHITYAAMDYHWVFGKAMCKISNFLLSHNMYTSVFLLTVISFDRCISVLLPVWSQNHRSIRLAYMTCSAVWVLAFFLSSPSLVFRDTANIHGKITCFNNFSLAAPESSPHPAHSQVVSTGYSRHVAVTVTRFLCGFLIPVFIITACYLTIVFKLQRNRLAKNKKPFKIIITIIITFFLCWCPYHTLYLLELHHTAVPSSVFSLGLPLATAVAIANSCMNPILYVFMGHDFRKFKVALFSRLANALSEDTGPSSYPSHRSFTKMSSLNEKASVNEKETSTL

With Chemerin 21-157 (from UniProt Q99969), the Kd in data set [1] is 0.21 nM; in data set [2], 0.88 nM.
Turning to Chemerin 21-148 (from UniProt Q99969), in data set [3], the Kd is 1.2 nM.
In the case of “Chemerin C9 peptide 149-157 (from UniProt Q99969)”, the Kd in data set [4] is 5.3 nM.
In the case of “Tyr-[Phe149]-chemerin146-157 146-157 (from UniProt Q99969)”, the Kd in data set [2] is 22 nM.
